Test results reported in the MegaScale stability set (Tsuboyama et al. 2023).

B1: EEHEE_rd4_0003 (parent)
chain: KKVTINGVEIKFNNPEEAVKFALELAKRLNLRIEFHGDQIKIE

Variants of: B1
Test: folding stability dG (cDNA display proteolysis); higher = more stable
Settings: PBS, room temperature

Row | Variant | folding stability dG
1 | KKVTINGVEIKFNNPELAVKFALELAKRLNLRIEFHGDQIKIE [E17L] | 2.56 kcal/mol
2 | KKVTINGVEIKFNNPEPAVKFALELAKRLNLRIEFHGDQIKIE [E17P] | 1.9 kcal/mol
3 | KKVTINGVEIKFNNPEVAVKFALELAKRLNLRIEFHGDQIKIE [E17V] | 2.25 kcal/mol
4 | KKVTINGVEIKFNNPEAAVKFALELAKRLNLRIEFHGDQIKIE [E17A] | 2.68 kcal/mol
5 | KKVTINGVEIKFNNPEDAVKFALELAKRLNLRIEFHGDQIKIE [E17D] | 2.68 kcal/mol
6 | KKVTINGVEIKFNNPETAVKFALELAKRLNLRIEFHGDQIKIE [E17T] | 2.26 kcal/mol
7 | KKVTINGVEIKFNNPEFAVKFALELAKRLNLRIEFHGDQIKIE [E17F] | 2.36 kcal/mol
8 | KKVTINGVEIKFNNPENAVKFALELAKRLNLRIEFHGDQIKIE [E17N] | 2.24 kcal/mol
9 | KKVTINGVEIKFNNPESAVKFALELAKRLNLRIEFHGDQIKIE [E17S] | 2.39 kcal/mol
10 | KKVTINGVEIKFNNPEHAVKFALELAKRLNLRIEFHGDQIKIE [E17H] | 2.23 kcal/mol
11 | KKVTINGVEIKFNNPERAVKFALELAKRLNLRIEFHGDQIKIE [E17R] | 2.16 kcal/mol
12 | KKVTINGVEIKFNNPEQAVKFALELAKRLNLRIEFHGDQIKIE [E17Q] | 2.48 kcal/mol
13 | KKVTINGVEIKFNNPEKAVKFALELAKRLNLRIEFHGDQIKIE [E17K] | 2.3 kcal/mol
14 | KKVTINGVEIKFNNPEIAVKFALELAKRLNLRIEFHGDQIKIE [E17I] | 2.36 kcal/mol
15 | KKVTINGVEIKFNNPEYAVKFALELAKRLNLRIEFHGDQIKIE [E17Y] | 2.56 kcal/mol
16 | KKVTINGVEIKFNNPECAVKFALELAKRLNLRIEFHGDQIKIE [E17C] | 4.22 kcal/mol
17 | KKVTINGVEIKFNNPEGAVKFALELAKRLNLRIEFHGDQIKIE [E17G] | 2.2 kcal/mol
18 | KKVTINGVEIKFNNPEMAVKFALELAKRLNLRIEFHGDQIKIE [E17M] | 2.49 kcal/mol
19 | KKVTINGVEIKFNNPEWAVKFALELAKRLNLRIEFHGDQIKIE [E17W] | 2.84 kcal/mol
20 | KKVTINGVEIKFNNPEEAEKFALELAKRLNLRIEFHGDQIKIE [V19E] | 2.04 kcal/mol

Row | Variant | folding stability dG
21 | KKVTINGVEIKFNNPEEACKFALELAKRLNLRIEFHGDQIKIE [V19C] | 3.56 kcal/mol
22 | KKVTINGVEIKFNNPEEADKFALELAKRLNLRIEFHGDQIKIE [V19D] | 1.61 kcal/mol
23 | KKVTINGVEIKFNNPEEAAKFALELAKRLNLRIEFHGDQIKIE [V19A] | 2.19 kcal/mol
24 | KKVTINGVEIKFVNPEEAVKFALELAKRLNLRIEFHGDQIKIE [N13V] | 2.46 kcal/mol
25 | KKVTINGVEIKFWNPEEAVKFALELAKRLNLRIEFHGDQIKIE [N13W] | 2.6 kcal/mol
26 | KKVTINGVEIKFMNPEEAVKFALELAKRLNLRIEFHGDQIKIE [N13M] | 2.66 kcal/mol
27 | KKVTINGVEIKFFNPEEAVKFALELAKRLNLRIEFHGDQIKIE [N13F] | 2.54 kcal/mol
28 | KKVTINGVEIKFPNPEEAVKFALELAKRLNLRIEFHGDQIKIE [N13P] | 2.53 kcal/mol
29 | KKVTINGVEIKFKNPEEAVKFALELAKRLNLRIEFHGDQIKIE [N13K] | 2.8 kcal/mol
30 | KKVTINGVEIKFSNPEEAVKFALELAKRLNLRIEFHGDQIKIE [N13S] | 2.69 kcal/mol
31 | KKVTINGVEIKFENPEEAVKFALELAKRLNLRIEFHGDQIKIE [N13E] | 2.59 kcal/mol
32 | KKVTINGVEIKFLNPEEAVKFALELAKRLNLRIEFHGDQIKIE [N13L] | 2.72 kcal/mol
33 | KKVTINGVEIKFANPEEAVKFALELAKRLNLRIEFHGDQIKIE [N13A] | 2.8 kcal/mol
34 | KKVTINGVEIKFCNPEEAVKFALELAKRLNLRIEFHGDQIKIE [N13C] | 3.31 kcal/mol
35 | KKVTINGVEIKFHNPEEAVKFALELAKRLNLRIEFHGDQIKIE [N13H] | 2.45 kcal/mol
36 | KKVTINGVEIKFRNPEEAVKFALELAKRLNLRIEFHGDQIKIE [N13R] | 2.84 kcal/mol
37 | KKVTINGVEIKFTNPEEAVKFALELAKRLNLRIEFHGDQIKIE [N13T] | 2.61 kcal/mol
38 | KKVTINGVEIKFQNPEEAVKFALELAKRLNLRIEFHGDQIKIE [N13Q] | 2.54 kcal/mol
39 | KKVTINGVEIKFGNPEEAVKFALELAKRLNLRIEFHGDQIKIE [N13G] | 2.44 kcal/mol
40 | KKVTINGVEIKFDNPEEAVKFALELAKRLNLRIEFHGDQIKIE [N13D] | 2.73 kcal/mol

Row | Variant | folding stability dG
41 | KKVTINGVEIKFINPEEAVKFALELAKRLNLRIEFHGDQIKIE [N13I] | 2.59 kcal/mol
42 | KKVTINGVEIKFYNPEEAVKFALELAKRLNLRIEFHGDQIKIE [N13Y] | 2.39 kcal/mol
43 | KKVTINGVEIKFNNPEESVKFALELAKRLNLRIEFHGDQIKIE [A18S] | 1.93 kcal/mol
44 | KKVTINGVEIKFNNPEEQVKFALELAKRLNLRIEFHGDQIKIE [A18Q] | 1.61 kcal/mol
45 | KKVTINGVEIKFNNPEEYVKFALELAKRLNLRIEFHGDQIKIE [A18Y] | 2.36 kcal/mol
46 | KKVTINGVEIKFNNPEEVVKFALELAKRLNLRIEFHGDQIKIE [A18V] | 2.48 kcal/mol
47 | KKVTINGVEIKFNNPEEHVKFALELAKRLNLRIEFHGDQIKIE [A18H] | 1.7 kcal/mol
48 | KKVTINGVEIKFNNPEEKVKFALELAKRLNLRIEFHGDQIKIE [A18K] | 1.52 kcal/mol
49 | KKVTINGVEIKFNNPEERVKFALELAKRLNLRIEFHGDQIKIE [A18R] | 1.72 kcal/mol
50 | KKVTINGVEIKFNNPEEGVKFALELAKRLNLRIEFHGDQIKIE [A18G] | 2.01 kcal/mol
51 | KKVTINGVEIKFNNPEEEVKFALELAKRLNLRIEFHGDQIKIE [A18E] | 1.47 kcal/mol
52 | KKVTINGVEIKFNNPEECVKFALELAKRLNLRIEFHGDQIKIE [A18C] | 3.5 kcal/mol
53 | KKVTINGVEIKFNNPEENVKFALELAKRLNLRIEFHGDQIKIE [A18N] | 1.75 kcal/mol
54 | KKVTINGVEIKFNNPEELVKFALELAKRLNLRIEFHGDQIKIE [A18L] | 2.59 kcal/mol
55 | KKVTINGVEIKFNNPEEWVKFALELAKRLNLRIEFHGDQIKIE [A18W] | 2.78 kcal/mol
56 | KKVTINGVEIKFNNPEEFVKFALELAKRLNLRIEFHGDQIKIE [A18F] | 2.79 kcal/mol
57 | KKVTINGVEIKFNNPEETVKFALELAKRLNLRIEFHGDQIKIE [A18T] | 1.88 kcal/mol
58 | KKVTINGVEIKFNNPEEPVKFALELAKRLNLRIEFHGDQIKIE [A18P] | 1.64 kcal/mol
59 | KKVTINGVEIKFNNPEEIVKFALELAKRLNLRIEFHGDQIKIE [A18I] | 2.45 kcal/mol
